From patent US20170035877A1

What was measured:
[1] = target: 16055 gp120 (HIV-1 16055 (subtype C))
[2] = target: 16055 SOSIP.663 trimer, negatively selected (flow-through of the GE136 column) (HIV-1 16055 (subtype C)); test: negative-stain EM, stoichiometry from micrographs
[3] = target: JRFL SOSIP.663 trimer, negatively selected (flow-through of the F105 column) (HIV-1 JRFL (subtype B)) (UniProt P20871); test: negative-stain EM, stoichiometry from micrographs
[4] = target: 16055 SOSIP (HIV-1 16055 (subtype C)); test: ITC; settings: Fab
[5] = target: 16055 SOSIP.663 trimer, negatively selected (flow-through of the GE136 column) (HIV-1 16055 (subtype C)); test: negative-stain EM, 2D class averages
[6] = target: JRFL SOSIP.663 trimer, negatively selected (flow-through of the F105 column) (HIV-1 JRFL (subtype B)) (UniProt P20871); test: negative-stain EM, 2D class averages

Q: F105 was tested. Which Kd [1] did it give?
A: The Kd was 30.2 nM.

Q: How did the percent of trimers with one Fab bound [2] turn out when PGT151 Fab was run?
A: Its percent of trimers with one Fab bound is 34%.

Q: What about the percent of trimers with three Fabs bound [2] of the same substance?
A: The percent of trimers with three Fabs bound was 0%.

Q: And the percent of trimers with two Fabs bound [2]?
A: Its percent of trimers with two Fabs bound is 20%.

Q: What about the percent of trimers with one Fab bound [3] of the same substance?
A: The percent of trimers with one Fab bound was 28%.

Q: And the percent of trimers with three Fabs bound [3]?
A: The percent of trimers with three Fabs bound was 11%.

Q: And the percent of trimers with two Fabs bound [3]?
A: Its percent of trimers with two Fabs bound is 36%.

Q: With VRC01 Fab as the substance, how does the Kd [4] read?
A: The Kd was 97 nM.

Q: 19b Fab was tested. Which percent of trimers with one Fab bound [5] did it give?
A: The percent of trimers with one Fab bound was 22%.

Q: And the percent of trimers with one Fab bound [6]?
A: The percent of trimers with one Fab bound was 25%.
